Source: PMC3378601

Legend:
[1] = molecular target: NM, the prion domain (N and M domains) of the yeast translation termination factor Sup35, untagged (yeast) (UniProt P05453)
[2] = molecular target: NM, the prion domain (N and M domains) of the yeast translation termination factor Sup35, untagged (yeast) (UniProt P05453); remark: listed apart in the source
[3] = molecular target: NM, the prion domain (N and M domains) of the yeast translation termination factor Sup35, untagged (yeast) (UniProt P05453); remark: listed apart in the source

- inhibition of seeded NM fibrillization by Hsp26 pretreated at 45°C for 10 min, ThT fluorescence; IC50 [1]: > 24000 nM
- pyrene excimer fluorescence of fibers of single cysteine NM mutants after 60 min with Hsp26 (10 µM); reduction at N-terminal positions 2 and 7 (slightly reduced in Head 21-38 and Tail 86-106) [2]: 2 fold
- inhibition of NM (5 µM) fibrillization seeded by preformed NM fibers (5% wt/wt), 12 h at 25°C, ThT fluorescence; IC50 of Hsp26 [3]: 1900 nM
Substance: Hsp26, yeast small heat shock protein (from UniProt P15992 1-214) (natural protein)
